Assay results from paper PMC12995615 (Frontiers in Immunology, 2026).

B1: recombinant bat antibody C05 with human signal peptide (bat C05Hsp) (antibody, V domains shown)
VH: QVQLQESGGGLVQPGESLRLSCVGSGSSFGESTLSYYAVSWVRQAPGKGLEWLSIINAGGGDIDYADSVEGRFTISRDNSKETLYLQMTNLRVEDTGVYYCAKHMSMQQVVSAGWERADLVGDAFDVWGQGTMVTVSS
VL: DIQLTQSPSSLSASVGDRVTLTCQASQDIRKFLNWYQQKPGKGPKLLIYDASNLQRGVPSRFSGGGSGTDFTLIISSLQPEDVGTYYCQQYDGLPFTFGGGTKVVIK
notes: also called bC05Hsp; ReBA
B2: recombinant bat antibody C05 with bat signal peptide (bC05Bsp) (antibody, V domains shown)
VH: B1 VH
VL: B1 VL
notes: also called ReBA

Biological target: Influenza H1 (A/Brisbane/59/2007) HA Clamp (Influenza A virus …, UniProt D5F1Q8, stabilised)
Assay: ELISA
Conditions: both partners purified

| Binder | Kd [nM] |
| --- | --- |
| B1 | 0.25 |
| B2 | 0.39 |
